From paper PMC11401214, “A new generation of nanobody research tools using improved mass spectrometry-based discovery methods” (The Journal of Biological Chemistry, 2024)
Each block holds one binder with its values, some of them ahead of it.

Legend:
Experiment in all cases: SPR; Biacore 8K; antigen immobilised on CM5 chip by amine coupling at 1 ug/ml (tdTomato) or 5 ug/ml (GST, IgGs) in 10 mM sodium acetate pH 5.5; nanobody injected in single-cycle kinetics at 0.1-10 nM; 20 mM Na-Hepes pH 7.4, 150 mM NaCl, 0.05% Tween 20; Langmuir 1:1 model, RIgG-1 and GIgG-4 fit to a two-step binding model
Set-up in all cases: kon of step 1 (2-state binding model) / koff of step 1 (2-state binding model) / koff of step 2 (2-state binding model): unit not given here
[1] = target: rabbit IgG (rabbit)
[2] = target: mouse IgG (mouse)
[3] = target: goat IgG (goat)

Kd [1]: 0.053 nM
B1: LaRIgG-7 (VHH)
VHH: DVQLVESGGGLVQTGGSLRLSCAASGRTFTTYDLAWFRQAPGKERECVAAVSRIGTTYYPDSVKGRFTISTDTAQNTVYLQMNSLKPEDTAVYYCASAKFGSRWIRAKTSEGNYDDWGRGTQVTVS

Kd [2]: 0.6 nM
B2: LaMIgG-9 (VHH)
VHH: QVQLVESGGGLVQAGGSLSLSCATSGRTGDLYAMAWFRQAPGAEREFVATVTAIGGATYYADSVKGRFTISASYARNMVYLQMNSLKPEDSAVYYCAASMKRVWPLHRSDEAEYWGQGTQVTVS

Kd [1]: 0.36 nM
koff of step 1 (2-state binding model) [1]: 0.0034
koff of step 2 (2-state binding model) [1]: 0.00026
kon of step 1 (2-state binding model) [1]: 890000
kon of step 2 (2-state binding model) [1]: 0.0026 s⁻¹
B3: LaRIgG-1 (VHH)
VHH: QVQLAESGGGLVQPGGSLRLSCVVSGGTFGRYDMGWFRQAPGKEREFVAAISREVTTNYGDSVRGRFTISRDNAENTVHLLMNSLKPEDTAVYYCAADDAHRYSGTYYLSQDFRYTYWGQGTQVTVS

Kd [3]: 0.82 nM
koff of step 1 (2-state binding model) [3]: 0.011
koff of step 2 (2-state binding model) [3]: 0.00033
kon of step 1 (2-state binding model) [3]: 2.2e+06
kon of step 2 (2-state binding model) [3]: 0.0018 s⁻¹
B4: LaGIgG-4 (VHH)
VHH: DVQLVESGGGLVQAGGSLRLSCAASGITFSRSTMGWHRQAPGKRRELVASINAVGSTNYVPSVKGRFTISRDNAKNTVTLQMNSLEPEDTGVYYCVSDPYDDPRRYWGPGTQVTVS

Kd [2]: 0.42 nM
B5: LaMIgG-5 (VHH)
VHH: DVQLVESGGGSVQAGGSLRLSCAASGFIFSKDVMNWFRQAPGKERELVAFINPSGTTHYVDSVKGRFTISRDNVKSTVYLQMNDLKPDDTAVYYCQTRKFVGTTWRDYWGQGTQVTVS

Kd [3]: 0.49 nM
B6: LaGIgG-12 (VHH)
VHH: QVQLVESGGGLVQAGGSLRLSCSASGRTLSTYAMGWFRQAPGKEREFVAVISRSGGSTHYVESVKGRFTIVRDNAKNTVYLQMDSLKPEDTAVYYCAVPKYTDYALSPEDFGSWGQGTQVTVS

Kd [1]: < 0.014 nM
B7: LaRIgG-2 (VHH)
VHH: QVQLVESGGGLVQAGGSLRLSCVASGGTFSDWPKGWFRQAPGKEREFVAAINWNGSGTTYADSVKGRFTISRDNAKNAVYLEMNSLKPEDTAVYSCASTFGGIRSVGTNDYWGRGTQVTVS

Kd [2]: 1.2 nM
B8: LaMIgG-8 (VHH)
VHH: QVQLVESGGGLVQAGGSLKLSCATSGFTFSTSVMNWFRQAPGKERDMVAFINPSGSTNYVDSVKGRFTISRDSTKNTVYLQMNSLKPEDTAVYYCQTRLLVDSGWRDYWGQGTQVTVS

Kd [2]: 0.21 nM
B9: LaMIgG-14 (VHH)
VHH: QVQLVESGGGLVQAGGSLRLSCAASGFTFSTSVMNWFRQAPGKEREMVAFINPSGSTHYVDSVKGRFTISRDSAKNTVYLQLNSLKPEDTAVYYCQTRLFVGAGWRDYWGQGTQVTVS
